Measurements published in patent US20130095071A1, “METHOD OF TREATING OR PREVENTING HEARING LOSS” (Audigen Inc., priority 2009, published 2013).

How the values were obtained:
[1] = tested on: cochlear hair cells; assay: Enzyme facilitated cochlear gene transfection with AAV through round window membrane; assay type: in vivo, guinea pig; details: after digestion of RWM
Method: (§1) The reaction time was 10 minutes.
For inner ear gene transfection, a piece of gelfoam (1-2 mm^3) was placed gently on RWM. 5 ul AAV solution was applied to the gelfoam. The cochlea was taken out for cochlea immunostaining against GFP 2-4 weeks after the surgical application of AAV vectors.
The transfection is through intact round window membrane (RWM). Under appropriate anesthesia, a cut of 2 cm is made posterior to the earlap and the soft tissue is distracted to expose the mastoid. The round window of the guinea pig is exposed by drilling a small hole of 2-3 mm in diameter on the mastoid. Solution of collagenase II is freshly prepared at concentration of 150 units/ml. With the help of a microinjection pump, a total of 10 μl enzyme solution is applied to the round window niche at a flow rate of 10 nl/sec. After reaction time of 10 minutes, residual enzyme solution is sucked out first using suction pump and then use gelfoam. […] Hearing status is evaluated using audiotory brainstem response (ABR).
The transfection is evaluated 2 weeks after the surgery. […] GFP positive hair cells are counted along the length of the cochlear duct. […]
A post-auricular approach was used to expose the tympanic bony bulla. […] The duration for the digestive treatment varied from 5 to 10 minutes and the quantity of the digestive solution 5 to 10 μl. […]

[2] = SEM/TEM examination of round window membrane after enzyme digestion
Method: Under appropriate anesthesia, the round window of the guinea pig was surgically exposed and inspected visually under a surgical microscope. Freshly prepared collagenase solution of 2-3 ul was applied to the round window niche with the help of a microinjection pump. The reaction time was 10 minutes. The residual solution was then sucked out and the RWM was washed with saline. The collagenase was used at a concentration of between 50 unit/ml to 200 unit/ml. In one example, the concentration used was 150 unit/ml. In the example provided here, the collagenase was collagenase from Clostridium histolyticum, Type II (available from Sigma).
To evaluate the damage of the digesting solution on RWW, the animal was killed immediately after the digestion and the cochleae were taken out and fixed with standard protocol for electronic microscopy. To evaluate if the damaged RWM heals spontaneously, some other animals were allowed to survive for 3 weeks before the RWMs were taken for examination.
Under deep anesthesia with an overdose of pentobarbital (100 mg/kg), the animal was decapitated and the temporal bone was rapidly removed and the cochlea extracted. To examine the RWM, the cochlea was immersed into a fixative of 2.5% glutaraldehyde overnight at 4° C., and post fixed in 2% OsO4 for 2 hours. […]

[3] = Safety of enzyme digestion of RWM: ABR before and after surgery; assay type: in vivo, guinea pig; details: 12 ears, 2-4 weeks after surgery
Method: as §1
ABR was tested in animals underwent gene transfection before and just before the animal was killed for morphology.
The transfection is through intact round window membrane (RWM). Under appropriate anesthesia, a cut of 2 cm is made posterior to the earlap and the soft tissue is distracted to expose the mastoid. The round window of the guinea pig is exposed by drilling a small hole of 2-3 mm in diameter on the mastoid. Solution of collagenase II is freshly prepared at concentration of 150 units/ml. With the help of a microinjection pump, a total of 10 μl enzyme solution is applied to the round window niche at a flow rate of 10 nl/sec. After reaction time of 10 minutes, residual enzyme solution is sucked out first using suction pump and then use gelfoam. A piece of gelfoam (2-3 mm^3) is placed upon RWM and then 5 μl AAV-GFP is applied to the gelfoam. The hole of mastoid is covered by suturing the soft tissue. Hearing status is evaluated using audiotory brainstem response (ABR).

collagenase
permeability of RWM to AAV [1]: makes RWM permeable to AAV | damage to RWM (SEM, TEM) ([2]; 3 weeks after the treatment): no difference from normal control | damage to RWM (SEM, TEM) ([2]; immediately after the treatment): causes damage to the epithelia facing middle ear | ABR threshold shift ([3]; 32, 48 kHz): less than 15 dB | hearing loss ([3]; other frequencies tested): no hearing loss
